How the values were obtained:
[1] = biological target: T1, Sen1-HD (UniProt Q00416 1095-1904); assay: EMSA
T1 sequence: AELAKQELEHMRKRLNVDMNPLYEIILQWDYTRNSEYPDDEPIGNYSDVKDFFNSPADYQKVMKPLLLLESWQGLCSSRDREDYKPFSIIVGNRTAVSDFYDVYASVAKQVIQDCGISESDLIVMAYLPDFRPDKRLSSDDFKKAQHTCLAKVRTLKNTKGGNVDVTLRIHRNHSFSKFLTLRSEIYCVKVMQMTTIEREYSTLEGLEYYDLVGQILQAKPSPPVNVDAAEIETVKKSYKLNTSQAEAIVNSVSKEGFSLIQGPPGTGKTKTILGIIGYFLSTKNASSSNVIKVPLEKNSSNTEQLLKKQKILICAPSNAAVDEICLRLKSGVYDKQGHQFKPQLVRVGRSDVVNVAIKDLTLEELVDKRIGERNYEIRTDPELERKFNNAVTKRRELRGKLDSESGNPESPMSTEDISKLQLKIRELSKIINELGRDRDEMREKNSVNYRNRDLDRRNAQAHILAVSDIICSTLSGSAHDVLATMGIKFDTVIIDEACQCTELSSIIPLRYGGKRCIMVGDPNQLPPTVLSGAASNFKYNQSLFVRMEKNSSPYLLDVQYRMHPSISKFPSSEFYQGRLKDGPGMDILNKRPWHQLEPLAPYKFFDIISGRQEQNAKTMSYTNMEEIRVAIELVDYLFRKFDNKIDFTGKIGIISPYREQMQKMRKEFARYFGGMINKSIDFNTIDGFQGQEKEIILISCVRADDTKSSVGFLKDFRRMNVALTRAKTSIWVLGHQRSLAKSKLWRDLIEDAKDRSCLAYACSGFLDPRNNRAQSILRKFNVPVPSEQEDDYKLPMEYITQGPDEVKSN

[2] = biological target: T2, SETX-HD-V1884T (Homo sapiens, UniProt Q7Z333 1674-2677, V1884T); assay: EMSA
T2 sequence: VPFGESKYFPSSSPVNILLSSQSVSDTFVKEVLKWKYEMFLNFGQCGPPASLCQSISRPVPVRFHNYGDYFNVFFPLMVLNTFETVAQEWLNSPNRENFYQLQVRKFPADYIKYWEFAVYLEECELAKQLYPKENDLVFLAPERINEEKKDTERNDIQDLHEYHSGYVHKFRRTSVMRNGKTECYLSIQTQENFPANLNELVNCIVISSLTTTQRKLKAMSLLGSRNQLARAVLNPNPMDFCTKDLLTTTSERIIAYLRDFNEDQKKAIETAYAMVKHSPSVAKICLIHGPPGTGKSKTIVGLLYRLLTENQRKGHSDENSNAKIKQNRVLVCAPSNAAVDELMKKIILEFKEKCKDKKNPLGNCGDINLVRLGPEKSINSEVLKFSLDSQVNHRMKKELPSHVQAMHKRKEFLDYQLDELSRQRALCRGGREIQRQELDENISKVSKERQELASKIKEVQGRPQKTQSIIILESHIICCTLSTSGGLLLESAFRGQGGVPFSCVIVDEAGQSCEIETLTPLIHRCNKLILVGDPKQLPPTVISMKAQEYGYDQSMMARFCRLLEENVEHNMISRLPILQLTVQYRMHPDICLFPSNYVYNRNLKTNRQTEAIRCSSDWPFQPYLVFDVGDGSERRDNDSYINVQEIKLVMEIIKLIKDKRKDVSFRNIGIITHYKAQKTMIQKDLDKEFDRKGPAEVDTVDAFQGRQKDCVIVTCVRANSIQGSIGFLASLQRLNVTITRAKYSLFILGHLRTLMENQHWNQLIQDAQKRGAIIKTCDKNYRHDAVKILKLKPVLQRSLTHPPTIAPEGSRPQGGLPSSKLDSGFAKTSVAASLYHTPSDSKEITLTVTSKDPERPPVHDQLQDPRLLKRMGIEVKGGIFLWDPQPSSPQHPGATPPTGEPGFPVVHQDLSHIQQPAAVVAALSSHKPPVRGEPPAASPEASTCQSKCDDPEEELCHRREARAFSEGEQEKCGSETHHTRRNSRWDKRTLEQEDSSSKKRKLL

B1: ssRNA pRMS678 (61 nt) (ssRNA)
RNA: UUGUCUUCUCAUAAAUUUAAUCCCCGUACGCUUAUACUCCUUUAACUACCCAGUCUUCCCG
binding result [1]: binds | binding result [2]: binds

From PMC10085699
